What is called EC50 is the midpoint of the concentration-response curve. Read a low EC50 as a more potent agent.

The record followed here is patent publication US20170174776A1 (Hoffmann-La Roche, published 2017).

The target in assay [1] is T1, extracellular domain of the mouse transferrin receptor (mouse, UniProt Q62351 89-763).
T1 construct: extracellular domain; Bought, SinoBiological #50741-M07H; also called mouse TfR
Kind of assay: ELISA, coated mouse TfR ECD, pH 5.5. (An ELISA detects its analyte on a solid surface through an enzyme-linked reagent.)

Assay [2] addresses T1, extracellular domain of the mouse …. In words: ELISA, coated mouse TfR ECD, pH 5.5 against pH 7.4.
For assay [3] the target is unchanged. In words: ELISA, coated mouse TfR ECD, pH 7.4.
Assay [4] deals with T2, fusion protein of the human transferrin receptor extracellular domain linked to human IgG1 Fc (human, UniProt P02786 89-760).
T2 construct: extracellular domain; Bought, R&D Systems #2474-TR-050; also called human TfR; not shown: human IgG1 Fc
In words: ELISA, coated human TfR ECD-Fc, pH 5.5. The procedure: (§1) A fusion protein of the human transferrin receptor extracellular domain linked to human IgG1 Fc (R&D Systems, Wiesbaden, Germany, #2474-TR-050) or the extracellular domain of the mouse transferrin receptor (SinoBiological, Beijing, China, #50741-M07H) or of the human insulin receptor (R&D Systems, Wiesbaden, Germany, #1544-IR/CF) were coated to a 96-well plate by incubating 50 μl of a solution of 1 μg/ml in PBS for 1 h at RT. […] After four further washes with PBS/0.1% (w/v) TWEEN 20, bound antibodies were detected using HRP-coupled secondary antibodies (Dianova, Hamburg, Germany, #109-036-097 or GE Healthcare, Freiburg, Germany, #NA9310V)(30 min., RT) and 50 μl of TMB (10 min., RT) substrate. Color development was stopped by addition of 50 μl of 1 N hydrochloric acid (HCl) and absorbance measured at 450 nm in a plate reader.

Assay [5] concerns the target T2, fusion protein of the human transferrin …. Kind of assay: ELISA, coated human TfR ECD-Fc, pH 7.4. The procedure: as §1
For assay [6] the target is unchanged. In words: ELISA, coated human TfR ECD-Fc, pH 5.5 against pH 7.4. The procedure: as §1

T2 sequence (P02786 89-760): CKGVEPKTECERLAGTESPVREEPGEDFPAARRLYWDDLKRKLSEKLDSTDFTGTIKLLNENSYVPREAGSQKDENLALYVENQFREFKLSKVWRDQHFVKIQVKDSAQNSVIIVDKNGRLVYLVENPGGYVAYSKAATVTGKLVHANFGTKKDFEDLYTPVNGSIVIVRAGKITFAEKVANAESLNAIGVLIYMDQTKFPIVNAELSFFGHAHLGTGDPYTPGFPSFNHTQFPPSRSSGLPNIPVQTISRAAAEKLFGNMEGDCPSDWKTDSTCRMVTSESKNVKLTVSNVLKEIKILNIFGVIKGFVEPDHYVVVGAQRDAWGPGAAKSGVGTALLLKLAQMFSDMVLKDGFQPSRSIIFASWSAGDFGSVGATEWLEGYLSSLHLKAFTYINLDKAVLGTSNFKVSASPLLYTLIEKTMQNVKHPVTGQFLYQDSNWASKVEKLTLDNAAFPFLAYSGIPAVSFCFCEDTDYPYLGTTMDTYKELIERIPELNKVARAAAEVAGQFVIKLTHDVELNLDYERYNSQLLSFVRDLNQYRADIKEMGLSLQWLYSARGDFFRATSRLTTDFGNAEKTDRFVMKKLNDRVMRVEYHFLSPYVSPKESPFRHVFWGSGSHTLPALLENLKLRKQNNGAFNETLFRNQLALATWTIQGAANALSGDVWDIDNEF
T1 sequence (Q62351 89-763): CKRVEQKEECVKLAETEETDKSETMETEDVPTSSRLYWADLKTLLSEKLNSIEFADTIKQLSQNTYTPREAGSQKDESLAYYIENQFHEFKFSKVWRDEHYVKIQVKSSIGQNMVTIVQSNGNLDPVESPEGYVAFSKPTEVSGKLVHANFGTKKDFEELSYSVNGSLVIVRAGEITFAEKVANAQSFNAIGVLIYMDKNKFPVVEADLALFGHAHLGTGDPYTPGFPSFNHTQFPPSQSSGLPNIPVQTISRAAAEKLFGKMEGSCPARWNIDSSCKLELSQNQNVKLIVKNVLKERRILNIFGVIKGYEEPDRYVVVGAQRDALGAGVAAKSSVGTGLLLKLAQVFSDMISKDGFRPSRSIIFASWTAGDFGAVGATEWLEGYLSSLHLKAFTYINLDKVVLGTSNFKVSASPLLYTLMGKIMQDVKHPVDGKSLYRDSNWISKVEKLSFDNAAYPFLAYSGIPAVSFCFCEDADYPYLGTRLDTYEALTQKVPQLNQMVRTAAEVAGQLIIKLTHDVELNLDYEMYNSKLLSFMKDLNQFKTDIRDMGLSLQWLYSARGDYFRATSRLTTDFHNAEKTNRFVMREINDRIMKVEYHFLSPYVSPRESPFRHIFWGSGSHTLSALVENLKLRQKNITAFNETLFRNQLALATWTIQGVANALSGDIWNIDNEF

B1: mAb 8D3 (rat anti-mouse transferrin-receptor antibody 8D3 variable regions with human IgG1 heavy and light chain constant regions) (antibody, V domains shown)
VH: EVQLVESGGGLVQPGNSLTLSCVASGFTFSNYGMHWIRQAPKKGLEWIAMIYYDSSKMNYADTVKGRFTISRDNSKNTLYLEMNSLRSEDTAMYYCAVPTSHYVVDVWGQGVSVTVSS
VL: DIQMTQSPASLSASLEEIVTITCQASQDIGNWLAWYQQKPGKSPQLLIYGATSLADGVPSRFSGSRSGTQFSLKISRVQVEDIGIYYCLQAYNTPWTFGGGTKLELK
Take B1: the EC50 was determined as 0.0549 µg/mL in assay [1] and 0.0511 µg/mL in assay [3]. The “ratio EC50 pH 5.5/EC50 pH 7.4” value in assay [2] is 1.1.

B2: mAb 128.1 (mouse anti-human transferrin-receptor antibody 128.1 variable regions with human IgG1 heavy and light chain constant regions) (antibody, V domains shown)
VH: EVQLQQSGPELVKPGASMKISCKASGYSFTGYTMNWVKQSHGENLEWIGRINPHNGGTDYNQKFKDKAPLTVDKSSNTAYMELLSLTSEDSAVYYCARGYYYYSLDYWGQGTSVTVSS
VL: QIVLTQSPAIMSASPGEKVTMTCSASSSIDYIHWYQQKSGTSPKRWIYDTSKLASGVPARFSGSGSGTSYSLTISSMEPEDAATYYCHQRNSYPWTFGGGTRLEIR
B2: the concentration giving a half-maximal response (EC50) was determined as 0.0098 µg/mL in assay [4] and 0.0078 µg/mL in assay [5]. Besides, the “ratio EC50 pH 5.5/EC50 pH 7.4” value in assay [6] was 1.3.
